Target: pY213 peptide (14-residue Abi1 peptide containing phosphorylated tyrosine 213) (human)
Assay: SPR (Biacore 3000), biotinylated pY213 on streptavidin chip, GST-Abl SH2 injected, 1:1 model

Kd: 33.2 nM
Substance: GST-Abl SH2 domain fusion protein (from UniProt P00519 146-236)

From patent US20100184652A1
